Paper PMC3834253, “Attenuation of VEGFR-2 Expression by sFlt-1 and Low Oxygen in Human Placenta” (PLoS ONE, 2013)

Molecular target: T1, Vascular endothelial growth factor receptor 2 (VEGFR-2) (human (endogenous in placenta), UniProt P35968 20-1356)
T1 construct: VEGF receptor-2 (VEGFR-2, also known as KDR), human, endogenous in placental tissue; precipitated with a monoclonal VEGFR-2 antibody (Cell Signaling Technology); Endogenous receptor in frozen placental tissue lysates; bait of the co-immunoprecipitation; also called VEGF receptor-2; KDR; source: endogenous, human placental tissue lysate
Test: co-IP; human placental tissue lysates (8, 12 and 35 weeks of gestation; preeclamptic placentae), 500 ug protein, precleared with Protein-A Agarose, precipitated with 1 ug monoclonal VEGFR-2 antibody overnight at 4 C, washed 3 times in ice cold RIPA buffer, blotted for sFlt-1
Details: partners not purified

T1 sequence (P35968 20-1356): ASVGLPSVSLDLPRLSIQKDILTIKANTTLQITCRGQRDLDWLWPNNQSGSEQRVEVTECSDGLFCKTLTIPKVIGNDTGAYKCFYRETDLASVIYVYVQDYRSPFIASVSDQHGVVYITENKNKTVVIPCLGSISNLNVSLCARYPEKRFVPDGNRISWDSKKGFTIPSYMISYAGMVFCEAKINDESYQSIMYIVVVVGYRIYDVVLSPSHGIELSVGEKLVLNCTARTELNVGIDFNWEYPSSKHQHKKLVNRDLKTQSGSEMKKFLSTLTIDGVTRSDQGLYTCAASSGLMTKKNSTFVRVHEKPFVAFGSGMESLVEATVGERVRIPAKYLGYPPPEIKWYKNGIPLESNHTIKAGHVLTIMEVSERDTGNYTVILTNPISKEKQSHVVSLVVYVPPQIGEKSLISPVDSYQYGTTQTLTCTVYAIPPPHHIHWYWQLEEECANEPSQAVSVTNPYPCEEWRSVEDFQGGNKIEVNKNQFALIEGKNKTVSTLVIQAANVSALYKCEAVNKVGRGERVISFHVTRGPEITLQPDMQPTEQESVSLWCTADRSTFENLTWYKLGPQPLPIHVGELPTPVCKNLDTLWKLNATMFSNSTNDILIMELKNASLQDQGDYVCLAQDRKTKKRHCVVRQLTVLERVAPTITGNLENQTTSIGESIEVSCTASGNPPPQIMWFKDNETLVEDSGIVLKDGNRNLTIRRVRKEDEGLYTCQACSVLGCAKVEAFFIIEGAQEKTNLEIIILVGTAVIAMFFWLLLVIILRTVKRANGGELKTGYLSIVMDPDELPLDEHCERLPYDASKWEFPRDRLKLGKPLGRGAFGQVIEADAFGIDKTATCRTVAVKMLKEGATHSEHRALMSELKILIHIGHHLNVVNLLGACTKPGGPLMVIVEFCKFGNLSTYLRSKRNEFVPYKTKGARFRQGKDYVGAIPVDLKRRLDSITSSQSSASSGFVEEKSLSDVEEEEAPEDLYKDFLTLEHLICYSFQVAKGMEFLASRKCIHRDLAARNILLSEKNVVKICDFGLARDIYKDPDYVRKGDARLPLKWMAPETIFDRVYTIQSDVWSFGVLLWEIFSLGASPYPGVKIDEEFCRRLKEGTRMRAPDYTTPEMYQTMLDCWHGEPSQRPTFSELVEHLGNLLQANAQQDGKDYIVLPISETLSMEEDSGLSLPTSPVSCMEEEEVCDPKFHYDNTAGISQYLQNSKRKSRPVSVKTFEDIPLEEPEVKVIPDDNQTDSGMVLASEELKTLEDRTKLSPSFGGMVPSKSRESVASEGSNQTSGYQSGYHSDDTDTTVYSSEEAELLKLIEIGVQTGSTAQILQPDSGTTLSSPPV

B1: soluble VEGF receptor-1 (sFlt-1), 105 kDa species (sFlt-13) (natural protein, human (endogenous in placenta), UniProt P17948-2 27-687, looked up)
chain: SKLKDPELSLKGTQHIMQAGQTLHLQCRGEAAHKWSLPEMVSKESERLSITKSACGRNGKQFCSTLTLNTAQANHTGFYSCKYLAVPTSKKKETESAIYIFISDTGRPFVEMYSEIPEIIHMTEGRELVIPCRVTSPNITVTLKKFPLDTLIPDGKRIIWDSRKGFIISNATYKEIGLLTCEATVNGHLYKTNYLTHRQTNTIIDVQISTPRPVKLLRGHTLVLNCTATTPLNTRVQMTWSYPDEKNKRASVRRRIDQSNSHANIFYSVLTIDKMQNKDKGLYTCRVRSGPSFKSVNTSVHIYDKAFITVKHRKQQVLETVAGKRSYRLSMKVKAFPSPEVVWLKDGLPATEKSARYLTRGYSLIIKDVTEEDAGNYTILLSIKQSNVFKNLTATLIVNVKPQIYEKAVSSFPDPALYPLGSRQILTCTAYGIPQPTIKWFWHPCNHNHSEARCDFCSNNEESFILDADSNMGNRIESITQRMAIIEGKNKMASTLVVADSRISGIYICIASNKVGTVGRNISFYITDVPNGFHVNLEKMPTEGEDLKLSCTVNKFLYRDVTWILLRTVNNRTMHYSISKQKMAITKEHSITLNLTIMNVSLQDSGTYACRARNVYTGEEILQKKEITIRGEHCNKKAVFSRISKFKSTRNDCTTQSNVKH
notes: sFlt-1, truncated soluble splice variant of VEGFR-1 (six extracellular IgG like domains with a unique C-terminus), human; isoform assigned by the authors from the band size; Detected by blot with an sFlt-1 antibody (AF321, R&D Systems) in VEGFR-2 immunoprecipitates; also called soluble VEGFR-1; source: endogenous, human placental tissue lysate
fold co-immunoprecipitated sFlt-1 (densitometry), PE over PTC placentae: 5.98 fold
